B1: C1orf55 (parent)
chain: FTSPDYQQQCHEMAERLEDSVLKG

Variants of: B1
Assay: protein stability index of a GFP-peptide fusion (GPS, HEK-293T) (PSI 1-6); higher = more stable
Settings: c terminus: a fixed tail appended
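Also: lentivirally expressed fusions sorted by FACS into six bins by GFP to DsRed ratio, PSI derived from sequencing read proportions per bin multiplied by bin number.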

Variant	protein stability index
G24F	2.01
G24H	1.52
G24C	2.52
G24S	1.89
G24W	1.78
G24D	1.91
G24K	2.49
G24T	2.26
G24A	1.98
G24N	2.15
G24R	1.87
G24M	2.44
G24Y	1.8
G24P	2
G24V	1.72
G24Q	2
G24E	2.74
M13C	1.97
M13Y	1.93
M13R	2.09
M13N	2.66
M13K	2.79
M13F	1.85
M13V	1.91

Variant	protein stability index
M13L	2.25
M13W	2.02
M13A	2.03
M13H	2.27
M13T	2.1
M13P	2.83
M13S	2.53
M13G	2.56
F1L	5
F1E	4.78
F1M	4.55
F1T	4.88
F1K	4.64
F1W	3.75
F1A	4.88
F1R	3.98
F1Y	1.94
F1Q	4.35
F1N	4.84
F1V	4.07
A14E	2.63
A14C	2.06
A14P	2.48
A14M	2.27

Variant	protein stability index
A14L	2.26
A14V	2
A14T	2.07
A14G	2.48
A14D	2.86
A14R	2.27
A14W	2.1
A14Y	1.92
A14H	2.39
A14N	2.75
P4D	4.06
P4T	2.06
P4N	2.52
P4C	2.87
P4M	2.23
P4K	2.41
P4S	2.26
P4E	4.3
P4Y	1.98
P4A	2.37
P4I	2.37
P4H	2.63
P4W	2.61
P4G	2.06

Variant	protein stability index
P4L	2.18
P4V	2.09
L17A	2.86
L17D	3.18
L17G	2.54
L17N	2.23
L17H	2.52
L17M	1.92
L17R	2.72
L17F	2.01
L17Y	2.22
L17I	2.12
L17T	2.9
L17Q	2.34
L17K	1.97
L17V	2.35
Q7F	3.33
Q7C	1.68
Q7D	4.18
Q7S	2.24
Q7G	2.05
Q7I	1.81
Q7P	2.27
Q7H	2.14

Variant	protein stability index
Q7A	1.12
Q7M	2.01
Q7N	3.16
Q7E	3.92
Q7Y	3.06
Q7R	1.85
Q7T	2.02
T2W	3.04
T2R	4.16
T2I	2.14
T2M	3.79
T2A	2.62
T2V	2.45
T2N	4.04
T2C	1.56
T2K	3.92
T2L	3.48
T2S	3.39
T2D	4.63
T2F	3.69
T2G	3.24
K23R	2.57
K23D	2.57
K23N	2.6

Variant	protein stability index
K23S	2.24
K23W	2.39
K23G	2.38
K23F	1.5
K23Q	2.23
K23Y	1.99
K23H	1.89
K23M	2.02
K23E	2.35
K23T	2.13
D19V	2.03
D19H	2.32
D19Q	2.04
D19F	1.79
D19T	1.76
D19P	1.98
D19K	1.35
D19E	2.04
D19G	1.77
D19R	1.65
D19N	2.37
D19L	1.91
C10G	3.29
C10S	2.87

Variant	protein stability index
C10N	3.37
C10W	2.05
C10D	4.68
C10F	2.14
C10T	2.26
C10Y	3.3
C10L	2.55
C10Q	3.47
C10A	3.17
C10P	3.87
C10E	4.53
C10H	2.74
C10V	2.29
C10I	2.59
L22P	2.97
L22H	2.05
L22G	2.57
L22I	2.36
L22Q	2.79
L22M	2.35
L22V	2.75
L22F	1.9
L22K	2.12
L22A	2.42

Variant	protein stability index
L22T	2.22
L22N	2.93
L22Y	2.26
S20G	1.72
S20W	2.08
S20L	2.93
S20Y	1.91
S20K	1.75
S20M	2.06
S20T	2.08
S20P	2.12
S20E	2.67
S20Q	2.9
S20R	2.47
S20N	1.55
S20C	2.4
S20F	1.85
Q8W	2.04
Q8K	2
Q8M	1.59
Q8R	1.72
Q8N	2.62
Q8Y	1.99
Q8L	1.68

Variant	protein stability index
Q8S	2.18
Q8P	4.29
Q8G	2.81
Y6G	4.76
Y6W	3.06
Y6P	4.14
Y6T	4.41
Y6H	4.48
Y6S	4.63
Y6Q	4.78
Y6R	4.24
Y6F	1.84
Y6K	4.44
Y6D	4.95
Y6C	4.51
Y6A	4.56
Y6M	3.94
Y6L	4.3
Y6I	3.94
E12T	1.47
E12L	2.7
E12G	2.13
E12A	2.79
E12N	1.7

Variant	protein stability index
E12H	2.36
E12D	2.56
E12V	1.88
E12S	1.73
E12C	1.93
E12W	1.85
E12K	1.32
E12Y	2.35
Q9S	1.94
Q9C	1.84
Q9L	1.7
Q9I	1.29
Q9F	2.12
Q9K	1.92
Q9T	1.38
Q9D	3.87
Q9W	2.98
Q9R	1.28
Q9A	1.95
Q9P	2.59
Q9Y	2.09
Q9M	2.08
Q9H	1.85
D5P	2.94

Variant	protein stability index
D5V	1.86
D5Y	2.28
D5Q	2.29
D5S	1.81
D5L	2.33
D5G	1.8
D5K	2.57
D5C	3.59
D5W	2.62
D5T	2.17
D5R	2.03
D5H	2.03
D5A	2.15
D5N	2.47
E18G	2.23
E18P	1.78
E18Y	1.79
E18M	1.97
E18T	1.4
E18C	1.99
E18A	1.96
E18N	1.44
E18W	1.55
E18H	1.74

Variant	protein stability index
E18S	2.06
E18R	2.36
E18K	1.74
E18L	1.76
E18D	1.9
E15T	2.62
E15G	2.25
E15N	1.36
E15L	1.57
E15H	2.34
E15S	2.04
E15Y	1.22
E15C	1.96
E15Q	1.67
E15W	1.11
E15R	2.04
E15K	1.59
E15P	2.33
H11T	2.1
H11A	2.83
H11N	2.13
H11P	2.66
H11K	2.1
H11M	2.33

Variant	protein stability index
R16C	2.31
R16A	2.08
R16L	1.77
R16M	2.44
R16D	2.85
R16V	2.45
R16N	2.52
R16K	1.93
R16Y	2.04
R16G	2.49
R16P	2.56
R16E	2.45
R16H	2.33
R16S	2.21
R16W	1.9
R16I	2.94
V21K	2.99
V21P	2.73
V21S	2.56
V21Q	2.21
V21C	2.12
V21A	3.08
V21H	2.41
V21W	1.68

Variant	protein stability index
V21D	2.34
V21Y	2.06
V21F	2.01
V21G	2.09
V21R	2.33
V21M	1.9
V21T	2.65
V21I	2.55
S3I	3.73
S3N	2.75
S3V	3.92
S3L	3.23
S3H	3.34
S3Q	3.1
S3T	2.52
S3E	4.12
S3G	1.76
S3K	3.47
S3Y	3.13
S3C	2.83
S3W	2.24
S3D	3.25

From the supplement of paper PMC10567573
